According to US20260022175A1 (Chugai, published 2026):
Where a chain is given by its changes, count along the chain named.

T1: human FcγRIIa R allotype extracellular domain with C-terminal His-tag (human, UniProt P12318 34-217)
T1 construct: extracellular domain; also called hFcγR IIa R
T1 sequence (looked up): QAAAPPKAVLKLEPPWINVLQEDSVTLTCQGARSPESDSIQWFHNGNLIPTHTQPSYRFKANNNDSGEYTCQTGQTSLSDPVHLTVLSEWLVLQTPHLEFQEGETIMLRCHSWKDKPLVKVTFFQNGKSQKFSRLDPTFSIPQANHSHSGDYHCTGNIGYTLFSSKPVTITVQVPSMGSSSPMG

T2: human FcγRIIa H allotype extracellular domain with C-terminal His-tag (human, UniProt P12318 34-217)
T2 construct: extracellular domain; also called hFcγR IIa H
T2 sequence (looked up): T1 sequence (looked up) with R134H

T3: human FcγRIIb extracellular domain with C-terminal His-tag (human, UniProt P31994 43-217)
T3 construct: extracellular domain; also called hFcγR IIb
T3 sequence (looked up): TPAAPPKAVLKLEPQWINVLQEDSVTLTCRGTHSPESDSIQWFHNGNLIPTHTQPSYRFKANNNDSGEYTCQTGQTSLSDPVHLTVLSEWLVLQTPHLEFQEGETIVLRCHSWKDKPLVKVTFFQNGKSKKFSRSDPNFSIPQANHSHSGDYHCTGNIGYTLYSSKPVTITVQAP

B1: 04H1637-Kn125/04L1610-lam1//04H1637-Hl076/04L1610-lam1 (antibody, human IgG1, lambda)
heavy 1: QVQLVESGGGLVKPGGSLRLSCAASGFTFSSKTMNWVRQAPGKGLEWVSSISTQSHYIYYAESVRGRFTISRDNAKNSLYLQMNSLRAEDTAVYYCARYGKREDMLWVFDYWGQGTLVTVSSASTKGPSVFPLAPSSKSTSGGTAALGCLVKDYFPEPVTVSWNSGALTSGVHTFPAVLQSSGLYSLSSVVTVPSSSLGTQTYICNVNHKPSNTKVDKKVEPKSCDKTHTCPPCPAPEYQWGPMVFLFPPKPKDTLMISRTPEVTCVVVDVSDEEPEVKFNWYVDGVEVHNAKTKPREEQYNATYRVVSVLTVLHQDWLNGKEYKCKVSNKALPAPIEKTISKAKGQPREPQVCTLPPSRDELTKNQVSLWCLVKGFYPSDIAVEWESNGQPENNYKTTPPVLDSDGSFFLYSKLTVDKSRWQQGNVFSCSVMHEALHNHYTQKSLSLSP
heavy 2: QVQLVESGGGLVKPGGSLRLSCAASGFTFSSKTMNWVRQAPGKGLEWVSSISTQSHYIYYAESVRGRFTISRDNAKNSLYLQMNSLRAEDTAVYYCARYGKREDMLWVFDYWGQGTLVTVSSASTKGPSVFPLAPSSKSTSGGTAALGCLVKDYFPEPVTVSWNSGALTSGVHTFPAVLQSSGLYSLSSVVTVPSSSLGTQTYICNVNHKPSNTKVDKKVEPKSCDKTHTCPPCPAPELLGGPSVFLFPPKPKDTLMISRTPEVTCVVVDVSHEEPEVKFNWYVDGVEVHNAKTKPREEQYNSTYRVVSVLTVLHQDWLNGKEYKCKVSNDALPMPIEETISKAKGQPREPQVYTLPPSRCELTKNQVSLSCAVKGFYPSDIAVEWESNGQPENNYKTTPPVLDSDGSFFLVSKLTVDKSRWQQGNVFSCSVMHEALHNHYTQKSLSLSP
light: QSALTQPPSASGSPGQSVTISCEGPSTGVGDYNWVHWYQQHPGKAPKLMIYFTSKKPSGVPDRFSGSKSGNTASLTVSGLQAEDEADYYCQTYAAPLGPMFGGGTKLTVLGQPKAAPSVTLFPPSSEELQANKATLVCLISDFYPGAVTVAWKADSSPVKAGVETTTPSKQSNNKYAASSYLSLTPEQWKSHRSYSCQVTHEGSTVEKTVAPTECS
notes: Heterodimerized antibody, Fc variant of WO 2013/002362; also called 04H1637-Kn125/04L1610-lam1//04H1637-H1076/04L1610-lam1
B2: 04H1637-Kn461/04L1610-lam1//04H1637-Hl443/04L1610-lam1 (antibody, human IgG1, lambda)
heavy 1: B1 heavy 1 with Y239F, T255V, T312P, K331D, I337E
heavy 2: B1 heavy 2 with G241A, T255V, S303A, T312P, M335A, I337E
light: B1 light
notes: Heterodimerized antibody; also called 04H1637-Kn461/04L1610-lam1//04H1637-H1443/04L1610-lam1
B3: 04H1637-Kn462/04L1610-lam1//04H1637-Hl445/04L1610-lam1 (antibody, human IgG1, lambda)
heavy 1: B1 heavy 1 with Y239F, T255V, T312P, K331D
heavy 2: B1 heavy 2 with G241A, T255V, S303A, T312P, M335K, I337D
light: B1 light
notes: Heterodimerized antibody; also called 04H1637-Kn462/04L1610-lam1//04H1637-H1445/04L1610-lam1

target: T4, human FcγRIa extracellular domain with C-terminal His-tag (human, UniProt P12314 16-292); experiment: SPR Biacore T200, Ab captured via Fab-lambda, pH 7.4, 25C;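 also: antibodies captured on a streptavidin chip carrying biotinylated anti-Fab-lambda, with each FcγR injected as analyte in phosphate buffer. KD fitted by 1:1 Langmuir or steady-state model depending on receptor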
T4 construct: extracellular domain; also called hFcγR Ia; hFcγRIa
T4 sequence (P12314 16-292): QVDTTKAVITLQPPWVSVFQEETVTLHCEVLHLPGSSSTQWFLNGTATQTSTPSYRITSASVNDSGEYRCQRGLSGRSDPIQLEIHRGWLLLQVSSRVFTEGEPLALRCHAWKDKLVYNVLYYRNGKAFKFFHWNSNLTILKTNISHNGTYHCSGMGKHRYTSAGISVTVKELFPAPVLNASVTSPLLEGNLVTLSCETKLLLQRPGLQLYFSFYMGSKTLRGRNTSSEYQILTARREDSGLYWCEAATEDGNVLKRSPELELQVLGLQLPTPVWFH
Method: (§1) The interaction between the generated antibodies and human FcγRs was analyzed by the following method using Biacore T200. 50 mM Na-Phosphate, 150 mM NaCl, 0.05% Tween20 (pH 7.4) was used as the running buffer, and the assay was performed at 25° C. For the sensor chips, Series S SA (GE Healthcare) chips onto which CaptureSelect Human Fab-lambda Kinetics Biotin Conjugate (Thermo Fisher Scientific) was immobilized were used. The antibodies of interest were captured onto these chips and each FcγR diluted in the running buffer was allowed to interact with them. Chips were regenerated with 10 mM Glycine-HCl (pH 1.5) and 25 mM NaOH, and assay was performed by repeatedly capturing antibodies. The dissociation constants KD (mol/L) for FcγRs of each antibody were calculated using Biacore T200 Evaluation Software 2.0, using the 1:1 Langmuir binding model for FcγRIa and FcγRIIIa and the steady state affinity model for FcγRIIa. For FcγRIIb, the binding amount of FcγRIIb per unit amount of antibody was calculated by correcting the binding amount of FcγRIIb obtained from the sensorgram obtained by the measurement with the amount of antibody captured onto the chip surface.

Kd [nM]	Binder
0.04	B1
0.042	B2
0.076	B3

target: T1, human FcγRIIa R allotype extracellular …; experiment: as above
Method: as §1

Kd [nM]	Binder
1200	B1
190	B2
110	B3

target: T2, human FcγRIIa H allotype extracellular …; experiment: as above
Method: as §1

Kd [nM]	Binder
410	B1
130	B2
39	B3

target: T5, human FcγRIIIa F allotype extracellular domain with C-terminal His-tag (human, UniProt P08637 17-208); experiment: as above
T5 construct: extracellular domain; also called hFcγR IIIa F
T5 sequence (P08637 17-208): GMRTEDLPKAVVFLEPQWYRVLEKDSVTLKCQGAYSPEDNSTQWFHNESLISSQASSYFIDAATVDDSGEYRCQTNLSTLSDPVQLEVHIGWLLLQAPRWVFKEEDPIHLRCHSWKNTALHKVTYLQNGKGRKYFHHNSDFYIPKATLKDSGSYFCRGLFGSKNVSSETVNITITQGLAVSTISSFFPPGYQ
Method: as §1

Kd [nM]	Binder
3.4	B1
2.2	B2
3.6	B3

target: T6, human FcγRIIIa V allotype extracellular domain with C-terminal His-tag (human, UniProt P08637 17-208); experiment: as above
T6 construct: extracellular domain; also called hFcγR IIIa V
T6 sequence (P08637 17-208 F176V): as the sequence (P08637 17-208) above, with F160V counted along it
Method: as §1

Kd [nM]	Binder
1.9	B1
1.1	B2
1.8	B3

target: T3, human FcγRIIb extracellular domain with …; experiment: SPR; FcγRIIb at 1000 nM, bound amount per unit captured Ab
Method: as §1

Binding amount	Binder
0.007	B1
0.025	B2
0.03	B3

target: T4, human FcγRIa extracellular domain with …; experiment: SPR; KD of 04H1637-G1m/04L1610-lam1 divided by KD of variant;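 also: biacore T200 SPR at 25 °C, antibodies captured on anti-Fab-lambda SA chip with receptor as analyte, running buffer pH 7.4 for FcγRs and pH 6.0 for FcRn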
Method: as §1
(§2) The interaction between the generated antibodies and human FcRn was analyzed by the following method using Biacore T200. 50 mM Na-Phosphate, 150 mM NaCl, 0.05% Tween20 (pH 6.0) was used as the running buffer, and the assay was performed at 25° C. For the sensor chip, Series S SA (GE Healthcare) chips onto which CaptureSelect Human Fab-lambda Kinetics Biotin Conjugate (Thermo Fisher Scientific) was immobilized were used. The antibodies of interest were captured onto these chips and FcRn diluted in the running buffer was allowed to interact with them. Chips were regenerated with 10 mM Glycine-HCl (pH 1.5) and 25 mM NaOH, and assay was performed by repeatedly capturing antibodies. The dissociation constant for FcRn of each antibody was calculated using the steady state model, using Biacore T200 Evaluation Software 2.0.

Relative value to KD between G1m and hFcγRs	Binder
1.2	B1
1.2	B2
0.6	B3

target: T1, human FcγRIIa R allotype extracellular …; experiment: as above
Method: as §1, §2

Relative value to KD between G1m and hFcγRs	Binder
1.6	B1
10.7	B2
18.7	B3

target: T2, human FcγRIIa H allotype extracellular …; experiment: as above
Method: as §1, §2

Relative value to KD between G1m and hFcγRs	Binder
3.6	B1
11.1	B2
37.5	B3

target: T5, human FcγRIIIa F allotype extracellular …; experiment: as above
Method: as §1, §2

Relative value to KD between G1m and hFcγRs	Binder
406	B1
616	B2
382	B3

target: T6, human FcγRIIIa V allotype extracellular …; experiment: as above
Method: as §1, §2

Relative value to KD between G1m and hFcγRs	Binder
126	B1
226	B2
131	B3

target: T3, human FcγRIIb extracellular domain with …; experiment: SPR; binding amount divided by that of 04H1637-G1m/04L1610-lam1

Relative binding amount	Binder
0.9	B1
3.1	B2
3.7	B3
